According to patent publication US20070271623A1 (UNIVERSITY OF COPENHAGEN, published 2007):

How the values were obtained:
[1] = molecular target: T1, mutant MKS1-S30A C3-truncation (histidine-tagged)
T1 chain: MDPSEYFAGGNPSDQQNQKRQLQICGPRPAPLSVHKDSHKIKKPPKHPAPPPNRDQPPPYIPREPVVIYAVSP

[2] = molecular target: T2, mutant full-length MKS1-S30A (histidine-tagged)
T2 chain: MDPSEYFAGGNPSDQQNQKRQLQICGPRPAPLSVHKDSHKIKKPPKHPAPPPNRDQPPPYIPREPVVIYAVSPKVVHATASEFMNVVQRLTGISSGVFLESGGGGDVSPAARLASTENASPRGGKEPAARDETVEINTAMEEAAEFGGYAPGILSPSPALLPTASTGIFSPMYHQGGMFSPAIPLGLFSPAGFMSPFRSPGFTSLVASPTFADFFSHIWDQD

B1: HA (influenza hemagglutin antigen)-tagged MPK4 (protein)
chain: YPYDVPDYAYPYDVPDYAYPYDVPDYAYPYDVPDYAYPYDVPDYAYPYDVPDYAMSAESCFGSSGDQSSSKGVATHGGSYVQYNVYGNLFEVSRKYVPPLRPIGRGAYGIVCAATNSETGEEVAIKKIGNAFDNIIDAKRTLREIKLLKHMDHENVIAVKDIIKPPQRENFNDVYIVYELMDTDLHQIIRSNQPLTDDHCRFFLYQLLRGLKYVHSANVLHRDLKPSNLLLNANCDLKLGDFGLARTKSETDFMTEYVVTRWYRAPELLLNCSEYTAAIDIWSVGCILGETMTREPLFPGKDYVHQLRLITELIGSPDDSSLGFLRSDNARRYVRQLPQYPRQNFAARFPNMSAGAVDLLEKMLVFDPSRRITVDEALCHPYLAPLHDINEEPVCVRPFNFDFEQPTLTEENIKELIYRETVKFNPQDSV
in vitro phosphorylation assay (32P-γ-ATP, SDS-PAGE, phosphorimager) [1]: the mutant C3 truncated MKS1 (C3-S30A) was not phosphorylated by HA-tagged MPK4
in vitro phosphorylation assay (32P-γ-ATP, SDS-PAGE, phosphorimager) [2]: the mutant full-length MKS1 (S30A) was phosphorylated
